In patent US20220411492A1 (QILU PHARMACEUTICAL, published 2022):
Substitutions are numbered along the chain they refer to.

B1: ch-126A11 (antibody, V domains shown)
VH: QVQLKESGPGLVAPSQSLSITCTVSEFSLTTYGVSWVRQPPGKGLEWLGVIWGDGSTNYHSALISRLSISKDTSKSQVFLKLNSLQTDDTATYYCAKPGLRNAMDYWGQGTSVTVSS
VL: DIVMTQSPSSLSVSAGEKVTMSCKSSQSLLNSGNQKNYLAWYQQKPGQPPKLLIYGASTRESGVPDRFTGSGSGTDFTLTISSVQAEDLAVYYCQNDLIYPLTFGAGTKLELK
notes: also called chimeric antibody of clone 126A11
B2: ch-48H1 (antibody, V domains shown)
VH: QVQLQQPGAELVKPGTSVKLSCKASGYIFTNYWTHWMKQRPGQGLEWIGMIHPNSGSSNYNEKFKSKATLTVDRSSSTVYMQLRRLTSEDSAVYYCTRIHYGNSMDYWGQGTSVTVSS
VL: DIVMTQSPSSLTVTAGEKVTMSCKSSQSLFNSGNQKNYLTWYQQKPGQPPKLLIYWASTWESGVPDRFTGSGSGTDFTLTISSVQAEDLAVYYCQNAYSYPFTFGSGTKLEIK
notes: also called chimeric antibody of clone 48H1
B3: ch-37G8 (antibody, V domains shown)
VH: EVQLQQSGPVLVKPGASVKMSCKASGYTFSDYHMNWVKQSHGKSLEWVGLINPYNGGIRFNQKFKGKATLTVDKSSSTAYMELNSLTSEDSAVYYCATIYYGNSFAYWGQGTLVTVSA
VL: B2 VL with M21L, S22T, S26G, F30L, W60R, S83G, A97D, S99F, F102Y, S106G
notes: also called chimeric antibody of clone 37G8
B4: ch-229C9 (antibody, V domains shown)
VH: DVQLQESGPDLVKPSQSLSLICTVTGYSITSGYSWHWIRQFPGNKLEWMGYIHYSGGTNYNPSLKSRISFTRDTSKNQFFLQLNSVTTEDTATYYCARLERGNSFAYWGQGTLVTVSA
VL: B2 VL with S26T, F30L, W60R, V84L, A97D, S99F
notes: also called chimeric antibody of clone 229C9
B5: ch-32G8 (antibody, V domains shown)
VH: B3 VH with Q3H, S30T, V48I, L50V, F60Y
VL: B2 VL with F30L, W60R, A97N, S99I, S106G, K113R
notes: also called chimeric antibody of clone 32G8
B6: ch-39C8 (antibody, V domains shown)
VH: QVQLQQSGAGLVKPGASVKISCKASGYAFSSYWMIWVKQRPGKGLEWIGQIYPGDGDTNYNGKFKGKATLTADKSSSTAFMQLSSLTSEDSAVYFCTRIYYGNAFAYWGQGTLVTVSA
VL: B2 VL with F30L, W60R, A97D
notes: also called chimeric antibody of clone 39C8
B7: ch-40G7 (antibody, V domains shown)
VH: QVQLQQPGTELVKPGASVKLSCKASGYTFTNYWMHWVKQRPGHGLEWIGMIHPNSYSTNYNEKFRSKATLTVDKSSSTAYMQLSSLTSEDSAVYYCTRIYYGNAMDYWGQGTSVTVSS
VL: B2 VL with K18R, Q43H, S58F, W60R, S82R, A97D
notes: also called chimeric antibody of clone 40G7
B8: ch-299B2 (antibody, V domains shown)
VH: QVQLKQSGPELVRPGASVKLSCKTSGYIFTNYWIHWVKQRSGQGLEWVVRIYPGTGNTYYNEKFTGKATLTADKSSSTAYMQLSSLKYEDSAVYFCSREGYGKGNSMDYWGQGTSVTVSS
VL: B2 VL with S22N, F30L, I54F, W60R, Y93H, S99Y, F102Y, S106G, I112M
notes: also called chimeric antibody of clone 299B2
B9: ch-252F11 (antibody, V domains shown)
VH: EIQLVESGGGLVRPGGSLKLSCAASGFSFKNYVMSWVRQSPERRLEWVAEIRTGGDYTYYVDTVTGRFTISRDNAKNTLYLEMTSLRSEDTATYYCARVGYGNSLDYWGQGTTLTVSS
VL: B1 VL with S12T, S14T, A40T, G56W, Y93S, D97N, L98Y, I99F, K109E
notes: also called chimeric antibody of clone 252F11
B10: ch-251H11 (antibody, V domains shown)
VH: QVQLKQSGAELVRPGASVKLSCKTSGYTFTTFWIHWIKQRSGQGLEWIAKIYPGTGYTYYNEKFKGKATLTADKSSSAAYMQLSSLKSEDSAVYFCAREGYGKGNAVDFWGQGSSVTVSS
VL: B2 VL with W60R, S82D, A97D, S99T, F102S, S106G, K109N
notes: also called chimeric antibody of clone 251H11
B11: ch-241F7 (antibody, V domains shown)
VH: EVQLQQSGPELEKPGASVKISCKASGYSFTAYNMNWVRQRNGKSLEWIGNIDPYYGGTNYNQKFKGKATLTVDKSSSTAYMQLKSLTSEDSAVYFCATVYYGNSLIYWGQGTLVTVSA
VL: B1 VL with S12T, S14T, A40T, G56W, S71T, D97N, L98Y, I99F, K109Q
notes: also called chimeric antibody of clone 241F7
B12: ch-239E9 (antibody, V domains shown)
VH: QVQLQQSGPELVRPGVSVKISCKGSSYTFTDYTMHWVKQSHAKSLEWIGFIGVYYGNTNYNQKFKGKATMTVDKSSSTAYMELARLTSEDSAVYYCARIGRGNAMDYWGQGTSVTVSS
VL: B2 VL with F30L, W60R, Y93N
notes: also called chimeric antibody of clone 239E9
B13: ch-76D11 (antibody, V domains shown)
VH: QVQLQQSGAELMKPGASVKLSCKASGYTFTGYWIEWIKQRPGHGLEWIGEILPGSGSIKYNEKFKDKATFTADTSSNTAYMQLSSLTTEDSAIYYCARKGLRGNSFDYWGQGTTLTVSS
VL: B2 VL with F30L, L52R, W60R, A97D, S99Y
notes: also called chimeric antibody of clone 76D11
B14: ch-42D2 (antibody, V domains shown)
VH: B3 VH with S30T, H33Q, V48I, L50F, F60Y, Y101F, Y107N
VL: B2 VL with S25P, F30L, K51R, W60R, A97D, S99I, F102Y, S106G, K109N
notes: also called chimeric antibody of clone 42D2
B15: ch-43F5 (antibody, V domains shown)
VH: B2 VH with I28T, N31S, M37V, R74K, V79A, S104A
VL: B2 VL with S22T, F30L, W60R, V91I, A97D, Y100F
notes: also called chimeric antibody of clone 43F5

Key:
[1] = molecular target: T1, human Claudin 18.2 (hCLDN18.2) (human, UniProt P56856-2 1-261); test: cell-based or functional assay
[2] = molecular target: T1, human Claudin 18.2 (hCLDN18.2); test: FACS, HEK293-hCLDN18.2 cells
Text: (§1) FACS was used to detect the binding of anti-CLDN18.2 chimeric antibodies to HEK293 cells stably transfected expressing hCLDN18.2 (HEK293-hCLDN18.2) and gastric cancer tumor tissue-derived cells naturally expressing hCLDN18.2 (PDX-hCLDN18.2).

[3] = molecular target: T1, human Claudin 18.2 (hCLDN18.2); test: cell-based or functional assay; remark: listed apart in the source
[4] = molecular target: T1, human Claudin 18.2 (hCLDN18.2); test: FACS, PDX-hCLDN18.2 gastric cancer tumor tissue-derived cells
Text: as §1

[5] = molecular target: murine CLDN18.2 (mCLDN18.2) (murine) (UniProt P56857); test: FACS, HEK293-mCLDN18.2 cells

Row | Binder | CDC EC50 [1] | CDC Maximum lysis (%) [1] | EC50 [2] | Mean maximum fluorescence intensity (Top MFI) [2] | ADCC EC50 [3] | ADCC Maximum lysis (%) [3] | EC50 [4] | Mean maximum fluorescence intensity (Top MFI) [4] | EC50 [5] | Mean maximum fluorescence intensity (Top MFI) [5]
1 | B1 | 0.065 µg/mL | 95% | 2.12 nM | 9970 MFI | 0.01 µg/mL | 36.6% | 15 nM | 17100 MFI | 0.573 nM | 7640 MFI
2 | B2 | 0.17 µg/mL | 94.3% | 2.92 nM | 9480 MFI | 0.011 µg/mL | 44.7% | 5.59 nM | 13600 MFI | 1.76 nM | 14800 MFI
3 | B3 | 0.16 µg/mL | 92.9% | 5.05 nM | 10400 MFI | 0.022 µg/mL | 31.7% | 7 nM | 14400 MFI | 1.71 nM | 8930 MFI
4 | B4 | 0.165 µg/mL | 96.1% | 2.46 nM | 9870 MFI | 0.023 µg/mL | 29.1% | 10.7 nM | 15700 MFI | 1.19 nM | 12700 MFI
5 | B5 | 0.108 µg/mL | 93.8% | 2.66 nM | 8640 MFI | 0.019 µg/mL | 46.8% | 5.39 nM | 14800 MFI | 0.84 nM | 6870 MFI
6 | B6 | 0.177 µg/mL | 94.8% | 2.7 nM | 7820 MFI | 0.022 µg/mL | 34.5% | 20.1 nM | 17500 MFI | 1.63 nM | 10600 MFI
7 | B7 | 0.38 µg/mL | 89.1% | 2.31 nM | 7470 MFI | 0.018 µg/mL | 32.7% | 7.69 nM | 10100 MFI | 1.11 nM | 10000 MFI
8 | B8 | 0.124 µg/mL | 95.5% | 1.52 nM | 10100 MFI | 0.047 µg/mL | 33.5% | 5.81 nM | 16300 MFI | 0.758 nM | 13600 MFI
9 | B9 | 0.179 µg/mL | 95.4% | 2.2 nM | 8380 MFI | 0.022 µg/mL | 31.1% | 15.8 nM | 16500 MFI | 0.948 nM | 8980 MFI
10 | B10 | 0.359 µg/mL | 97.1% | 2.72 nM | 10800 MFI | 0.024 µg/mL | 38.8% | 96.2 nM | 19900 MFI | 1.01 nM | 8590 MFI
11 | B11 | 0.099 µg/mL | 95% | 3.02 nM | 12200 MFI | 0.027 µg/mL | 36.6% | 4.87 nM | 15200 MFI | 1.16 nM | 10500 MFI
12 | B12 | 0.139 µg/mL | 94.8% | 2.31 nM | 9270 MFI | 0.021 µg/mL | 36.7% | 4.55 nM | 14600 MFI | 1.24 nM | 12700 MFI
13 | B13 | 0.108 µg/mL | 95.4% | 2.46 nM | 8720 MFI | 0.021 µg/mL | 45.6% | 12.3 nM | 16800 MFI | 0.702 nM | 6340 MFI
14 | B14 | 0.13 µg/mL | 94.5% | 2.42 nM | 10400 MFI | 0.02 µg/mL | 39.1% | 7.42 nM | 15700 MFI | 0.764 nM | 7400 MFI
15 | B15 | 0.206 µg/mL | 89.8% | 1.51 nM | 5590 MFI | 0.064 µg/mL | 48.5% | 5.35 nM | 7620 MFI | 1.13 nM | 6090 MFI
